According to IntAct's records for PubMed 10801818:

B1: Zyxin (Homo sapiens), Q15942 (parent)
chain: MAAPRPSPAISVSVSAPAFYAPQKKFGPVVAPKPKVNPFRPGDSEPPPAPGAQRAQMGRVGEIPPPPPEDFPLPPPPLAGDGDDAEGALGGAFPPPPPPIEESFPPAPLEEEIFPSPPPPPEEEGGPEAPIPPPPQPREKVSSIDLEIDSLSSLLDDMTKNDPFKARVSSGYVPPPVATPFSSKSSTKPAAGGTAPLPPWKSPSSSQPLPQVPAPAQSQTQFHVQPQPQPKPQVQLHVQSQTQPVSLANTQPRGPPASSPAPAPKFSPVTPKFTPVASKFSPGAPGGSGSQPNQKLGHPEALSAGTGSPQPPSFTYAQQREKPRVQEKQHPVPPPAQNQNQVRSPGAPGPLTLKEVEELEQLTQQLMQDMEHPQRQNVAVNELCGRCHQPLARAQPAVRALGQLFHIACFTCHQCAQQLQGQQFYSLEGAPYCEGCYTDTLEKCNTCGEPITDRMLRATGKAYHPHCFTCVVCARPLEGTSFIVDQANRPHCVPDYHKQYAPRCSVCSEPIMPEPGRDETVRVVALDKNFHMKCYKCEDCGKPLSIEADDNGCFPLDGHVLCRKCHTARAQT

Variants of: B1
Conditions: with enah_human ENAH

Variant | effect of a mutation on the interaction
F71A;F93A;F104A | decreasing interaction
F93A | decreasing interaction
F71A | decreasing interaction
F71A;F93A | decreasing interaction

Variants of: B1
Conditions: with enah_mouse Enah

Variant | effect of a mutation on the interaction
F71A | disrupting interaction
